The results in this text go back to patent publication US20250243243A1, “DISRUPTION OF SONIC HEDGEHOG-SURF4 INTERACTION FOR CANCER TREATMENT” (The Hong Kong University of Science and Technology, priority 2022, published 2025).

The target of this assay is ShhN^1-198-HA (mouse) (UniProt Q62226). Briefly: anti-HA immunoprecipitation from HEK293T lysate, label-free quantitative mass spectrometry; 1 unique peptide; Control Group, IGF2 Group and Abundance Ratio not given.
Chain of ShhN^1-198-HA (mouse) (Q62226 25-198): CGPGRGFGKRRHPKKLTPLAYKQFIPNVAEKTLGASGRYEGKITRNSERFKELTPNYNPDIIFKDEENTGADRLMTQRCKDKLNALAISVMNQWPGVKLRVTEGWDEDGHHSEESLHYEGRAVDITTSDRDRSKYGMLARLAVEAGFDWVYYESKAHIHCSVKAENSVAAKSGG
Regarding BHMT (from UniProt Q93088) (enzyme), the abundance in The ShhN Group came to 2060.

As for PPIB (from UniProt P23284) (enzyme), the abundance in The ShhN Group was determined as 8940. With VPS51 (from UniProt Q9UID3) the figure was 45400.

As for GRIA1 (from UniProt P42261) (receptor), the abundance in The ShhN Group worked out at 19800.
